# Several values for one entry are separate records, joined by “and”; a condition that tells them apart may be missing. Equal values may be shown once.
# B1: Heterogeneous nuclear ribonucleoprotein K (hnRNPK), full-length wild type with an additional N-terminal glycine (natural protein)
# chain: not shown
# notes: additional glycine residue at the N-terminus, told in words; heterogeneous nuclear ribonucleoprotein K, full-length wild type; theoretical molar mass with the extra glycine 51,033 Da; also called H-hnRNPK; hydrogenated hnRNPK; source: E. coli Rosetta2 (DE3), purified (Ni Hi-trap, TEV cleavage, second Hi-trap, Superdex 200); not shown: His6, N-terminal, cleaved; eGFP, N-terminal, cleaved
# Columns and labels:
# [1] = target: the molecule itself; assay: SEC-MALS; SEC-LS (RALS, RI, UV) on Superdex 200 Increase 10/300 run at room temperature; hnRNPK sample kept at 4 °C (vial holder at 4 °C), low concentration
# [2] = target: the molecule itself; assay: SEC-MALS; SEC-LS (RALS, RI, UV) on Superdex 200 Increase 10/300 at room temperature; hnRNPK sample incubated at room temperature
protein,measurement,setting,value
B1,stoichiometry N,[1],1.98 hnRNPK molecules per particle (measured MM : theoretical MM)
same,stoichiometry N,[2],2.88 hnRNPK molecules per particle (measured MM : theoretical MM) and 1.53 hnRNPK molecules per particle (measured MM : theoretical MM)

# Reference: PMC11818384, “Structural Characteristics and Properties of the RNA-Binding Protein hnRNPK at Multiple Physical States” (International Journal of Molecular Sciences, 2025)
